Experimental data taken from patent US20090291081A1 (AbbVie / Abbott, published 2009).

T1: human IL-1α (human, UniProt P01583 113-271)
T1 construct: also called IL-1alpha; hIL-1α
T1 sequence (looked up): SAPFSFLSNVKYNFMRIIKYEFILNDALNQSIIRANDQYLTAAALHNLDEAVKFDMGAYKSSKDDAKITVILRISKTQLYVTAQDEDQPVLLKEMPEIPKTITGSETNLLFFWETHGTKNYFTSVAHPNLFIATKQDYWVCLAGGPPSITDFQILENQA


Biological target: T1, human IL-1α
Assay: Table 62 IC50; RBA presumed

IC50	Binder
> 1000 nM	ABT1-172 (other, VK dAb) VL: DIQMTQSPSSLSASVGDRVTITCRASQRIRNGLEWYQQKPGKAPKLLIWGSSRLQSGVPSRFSGSGSGTDFTLTISSLQPEDFATYYCAQTVWGPATFGQGTKVEIKR

Biological target: T1, human IL-1α
Assay: cell-based or functional assay

ND50	Binder
> 10000 nM	ABT1-18 (other) VL: DIQMTQSPSSLSASVGDRVTITCRASQSIQRWLAWYQQKPGKAPKLLIYFASQLQSGVPSRFSGSGSGTDFTLTISSLQPEDFATYYCQQLLRLPKTFGQGTKVEIKR
0.044 nM	ABT1-67 (other) VL: DIQMTQSPSSLSASVGDRVTITCRASQSIHRSLRWYQQKPGKAPKLLIYHASHLQSGVPSRFSGSGSGTDFTLTISSLQPEDFATYYCQQYKRRPSTFGQGTKVEIKR
0.01 nM	ABT1-95-174 (other) VL: DIQMTQSPSSLSASVGDRVTITCRASRPIVRNLRWYQQKPGKAPKLLIYSVSYLEPGVPSRFSGSGSGTDFTLTISSLQPEDFATYHCRQGYRWPVTFGQGTKVEIKR
0.005 nM	ABT1-95-182 (other) VL: DIQMTQSPSSLSASVGDRVTITCRASKPGVRNLRWYQQKPGKAPKLLIYSVSYLEPGVPSRFSGSGSGTDFTLTISSLQPEDFATYHCLQGYRWPPTFGQGTKVEIKR
0.133 nM	ABT1-95-A2 (other) VL: DIQMTQSPSSLSASVGDRVTITCRILQPPGRNLRWYQQKPGKAPKLLIYSKSFLEPGVPSRFSGSGSGTDFTLTISSLQPEDFATYHCQQGYRWPVTFGQGTKVEIKR
0.2 nM	ABT1-95-86 (other) VL: DIQMTQSPSSLSASVGDRVTITCRASQPIVRNLRWYQQKPGKAPKLLIYSTSYLEPGVPSRFSGSGSGTDFTLTISSLQPEDFATYHCQQGYRWPVTFGQGTKVEIKR
0.014 nM	ABT1-95-181 (other) VL: DIQMTQSPSSLSASVGDRVTITCRASKPIVRNMRWYQQKPGKAPKLLIYSVSYLEPGVPSRFSGSGSGTDFTLTISSLQPEDFATYHCLQGYRWPPTFGQGTKVEIKR
20 nM	ABT1-155 (other) VL: DIQMTQSPSSLSASVGDRVTITCRASSPIVANLRWYQQKPGKAPKLLIYAASSLQSGVPSRFSGSGSGTDFTLTISSLQPEDFATYYCTQGYVWPPTFGQGTKVEIKR
0.008 nM	ABT1-95-177 (other) VL: DIQMTQSPSSLSASVGDRVTITCRASQPIVRNLRWYQQKPGKAPKLLIYASSYLEPGVPSRFSGSGSGTDFTLTISSLQPEDFATYHCRQGYRWPVTFGQGTKVEIKR
100 nM	ABT1-221 (other) VL: DIQMTQSPSSLSASVGDRVTITCRASQDIWPYLMWYQQKPGKAPKLLIYYSSMLQSGVPSRFSGSGSGTDFTLTISSLQPEDFATYYCQQFRRWPYTFGQGTKVEIKR
1000 nM	ABT1-3 (other) VL: DIQMTQSPSSLSASVGDRVTITCRASQSIWTELKWYQQKPGKAPKLLIYGASLLQSGVPSRFSGSGSGTDFTLTISSLQPEDFATYYCQQFAYFPFTFGQGTKVEIKR
4000 nM	ABT1-9 (other) VL: DIQMTQSPSSLSASVGDRVTITCRASQSIGSSLLWYQQKPGKAPKLLIYLASRLQSGVPSRFSGSGSGTDFTLTISSLQPEDFATYYCQQFRSTPNTFGQGTKVEIKR
> 20000 nM	ABT1-10 (other) VL: DIQMTQSPSSLSASVGDRVTITCRASQSIVPNLRWYQQKPGKAPKLLIYGASTLQSGVPSRFSGSGSGTDFTLTISSLQPEDFATYYCQQGYVYPGTFGQGTKVEIKR
1000 nM	ABT1-20 (other) VH: EVQLLETGGGLVQPGGSLRLSCAASGFTFTPYRMGWVRQAPGKGLEWVSHIGIWGANTYYADSVKGRFTISRDNSKNTLYLQMNSLRAEDTAVYYCAKHPRPFDYWGQGTLVTVSS
5000 nM	ABT1-23 (other) VH: EVQLLESGGGLVQPGGSLRLSCAASGFTFSSYPMEWVRQAPGKGLEWVSAIAWPGSMTYYADSVKGRFTISRDNSKNTLYLQMNSLRAEDTAVYYCAKTHRLFDYWGQGTLVTVSS
> 20000 nM	ABT1-11 (other) VL: DIQMTQSPSSLSASVGDRVTITCRASQSIPYNLRWYQQKPGKAPKLLIYSASRLQSGVPSRFSGSGSGTDFTLTISSLQPEDFATYYCQQGYSWPMTFGQGTKVEIKR
2.3 nM	ABT1-95-168 (other) VL: DIQMTQSPSSLSASVGDRVTITCRASQPIVRNLRWYQQKPGKAPKLLIYSSSFLEPGVPSRFSGSGSGTDFTLTISSLQPEDFATYHCQQGYRWPVTFGQGTKVEIKR

ND50	Binder
0.035 nM	ABT1-95-166 (other) VL: DIQMTQSPSSLSASVGDRVTITCRASQPIVRNLRWYQQKPGKAPKLLIYSKSYLEPGVPSRFSGSGSGTDFTLTISSLQPEDFATYHCQQGYRWPVTFGQGTKVEIKR
0.09 nM	ABT1-95-137 (other) VL: DIQMTQSPSSLSASVGDRVTITCRASQPIVRNLRWYQQKPGKAPKLLIYSSSYLEPGVPSRFSGSGSGTDFTLTISSLQPEDFATYHCQQGYLWPVTFGQGTKVEIKR
0.1 nM	ABT1-95-135 (other) VL: DIQMTQSPSSLSASVGDRVTITCRASQPIVRNLRWYQQKPGKAPKLLIYSSSYLEPGVPSRFSGSGSGTDFTLTISSLQPEDFATYHCQQGYSWPVTFGQGTKVEIKR
615 nM	ABT1-95-51 (other) VL: DIQMTQSPSSLSASVGDRVTITCRASQPIIRNLRWYQQKPGKAPKLLIYSSSYLEPGVPSRFSGSGSGTDFTLTISSLQPEDFATYHCQQGYRWPVTFGQGTKVEIKR
7000 nM	ABT1-22 (other) VH: EVQLLESGGGLVQPGGSLRLSCAASGFTLKAYNMSWVRQAPGKGLEWVSLISSTGMFTDYADSVKGRFTISRDNSKNTLYLQMNSLRAEDTAVYYCAKWGVRRGLYFDYWGQGTLVTVSS
0.05 nM	ABT1-95-133 (other) VL: DIQMTQSPSSLSASVGDRVTITCRASQPIVRNLRWYQQKPGKAPKLLIYSSSYLEPGVPSRFSGSGSGTDFTLTISSLQPEDFATYHCRQGYRWPVTFGQGTKVEIKR
0.1 nM	ABT1-95-136 (other) VL: DIQMTQSPSSLSASVGDRVTITCRASQPIVRNLRWYQQKPGKAPKLLIYSSSYLEPGVPSRFSGSGSGTDFTLTISSLHPEDLATYHCQQGYGWPVTFGQGTKVEIKR
0.391 nM	ABT1-95-165 (other) VL: DIQMTQSPSSLSASVGDRVTITCRASQPIVRNMRWYQQKPGKAPKLLIYSSSYLEPGVPSRFSGSGSGTDFTLTISSLQPEDFATYHCQQGYRWPVTFGQGTKVEIKR
0.093 nM	ABT1-95-169 (other) VL: DIQMTQSPSSLSASVGDRVTITCRASQPIVRNLRWYQQKPGKAPKLLIYAVSYLEPGVPSRFSGSGSGTDFTLTISSLQPEDFATYHCQQGYRWPVTFGQGTKVEIKR
0.171 nM	ABT1-95-172 (other) VL: DIQMTQSPSSLSASVGDRVTITCRASRPIVRNLRWYQQKPGKAPKLLIYAVSYLEPGVPSRFSGSGSGTDFTLTISSLQPEDFATYHCQQGYRWPVTFGQGTKVEIKR
0.075 nM	ABT1-95-134 (other) VL: DIQMTQSPSSLSASVGDRVTITCRASQPIVRNLRWYQQKPGKAPKLLIYSSSYLEPGVPSRFSGSGSGTDFTLTISSLQPEDFATYHCAQGYRWPVTFGQGTKVEIKR
0.059 nM	ABT1-95-171 (other) VL: DIQMTQSPSSLSASVGDRVTITCRASRPIVRNLRWYQQKPGKAPKLLIYSVSYLEPGVPSRFSGSGSGTDFTLTISSLQPEDFATYHCQQGYRWPVTFGQGTKVEIKR
0.186 nM	ABT1-95-162 (other) VL: DIQMTQSPSSLSASVGDRVTITCRASKPIVRNLRWYQQKPGKAPKLLIYSSSYLEPGVPSRFSGSGSGTDFTLTISSLQPEDFATYHCQQGYRWPVTFGQGTKVEIKR
0.2 nM	ABT1-95-170 (other) VL: DIQMTQSPSSLSASVGDRVTITCRASRPIVRNLRWYQQKPGKAPKLLIYASSYLEPGVPSRFSGSGSGTDFTLTISSLQPEDFATYHCQQGYRWPVTFGQGTKVEIKR
0.15 nM	ABT1-95-164 (other) VL: DIQMTQSPSSLSASVGDRVTITCRASQPGVRNLRWYQQKPGKAPKLLIYSSSYLEPGVPSRFSGSGSGTDFTLTISSLQPEDFATYHCQQGYRWPVTFGQGTKVEIKR
0.05 nM	ABT1-95-163 (other) VL: DIQMTQSPSSLSASVGDRVTITCRASRPIVRNLRWYQQKPGKAPKLLIYSSSYLEPGVPSRFSGSGSGTDFTLTISSLQPEDFATYHCQQGYRWPVTFGQGTKVEIKR
0.469 nM	ABT1-95-167 (other) VL: DIQMTQSPSSLSASVGDRVTITCRASQPIVRNLRWYQQKPGKAPKLLIYSRSYLEPGVPSRFSGSGSGADFTLTISSLQPEDFATYHCQQGYRWPVTFGQGTKVEIKR
